A word on the EC50: it is the concentration giving half of the maximal effect. As a reminder, the koff is the first-order rate constant of dissociation. One may read the kon as the rate constant with which the complex forms.

This is an account of results in US20210238298A1 (ALLIGATOR BIOSCIENCE, published 2021).

The target in test [1] is T1, extracellular part of human CD137 fused to the transmembrane and intracellular part of hCD40, on CHO cells (human, UniProt P25942 194-277, limits assumed).
T1 construct: domain: transmembrane and intracellular part; also called CHO-huCD137; human CD137 over-expressed on CHO cells
T1 sequence (P25942 other isoform, or with tags, fused parts or gaps limits assumed): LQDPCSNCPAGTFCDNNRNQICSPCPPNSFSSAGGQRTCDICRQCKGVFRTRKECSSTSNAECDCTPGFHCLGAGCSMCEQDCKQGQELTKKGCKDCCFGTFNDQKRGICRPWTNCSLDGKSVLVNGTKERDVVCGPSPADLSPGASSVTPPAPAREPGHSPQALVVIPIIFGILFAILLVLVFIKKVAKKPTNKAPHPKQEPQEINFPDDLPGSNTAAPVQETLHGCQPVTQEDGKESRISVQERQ
The experiment in a line: flow cytometry, CHO transfectants (summary table). On the technique in general: In flow cytometry, cells or beads pass a laser one at a time.

Test [2] concerns the target T2, extracellular part of cynomolgus CD137 fused to the transmembrane and intracellular part of hCD40, on CHO … (cynomolgus (Macaca fascicularis); human, UniProt A9YYE7 24-186; P25942 194-277).
T2 construct: extracellular domain;domain: transmembrane and intracellular part; also called CHO-cyCD137; cyno CD137
The experiment in a line: flow cytometry, CHO cells; 95% confidence interval. On the procedure: (§1) Binding and EC50 to human and cynomolgus (Macaca fascicularis) CD137 was determined using flow cytometry of CHO cells transfected with human CD137, cynomolgus CD137 or empty vector. The extracellular part of human or cynomolgus CD137 was fused to the transmembrane and intracellular part of human CD40 and cloned into pcDNA3.0. The vector was subsequently stably transfected into CHO cells. […] CD137-transfected and empty vector-transfected cells were incubated with CD137 antibodies for at least 1h at 4° C. to saturate the binding. In order to minimize antibody internalization, 0.05% sodium azide was used in the incubation buffer and all work was performed on ice. […] Directly after staining the cells were fixed with a paraformaldehyde solution (10× concentrate BD CellFIX, BD biosciences #340181). Cells were analyzed by flow cytometry using FACSVerse (BD Biosciences). The median fluorescence intensity (MFI) for each sample was determined and the dose response data was analysed using Graph Pad Prism.
(§2) MFI data was normalized for each antibody, where 0% is defined as the lowest value and 100% is the highest value in the dose titration for each antibody.

Test [3] addresses T1, extracellular part of human CD137 fused …. The experiment in a line: flow cytometry, CHO cells; 95% confidence interval. The protocol:
as §1, §2

Test [4] addresses T3, recombinant human CD137-Fc (R&D #838-4B) (human, UniProt Q07011 24-186).
T3 construct: Bought; also called Human CD137 (R&D systems); CD137 (R&D Systems); not shown: Fc part, not described
The test is described as follows: SPR (Biacore), immobilised human CD137, bivalent antibody in flow. On the procedure:
Human CD137 (R&D systems) was immobilized to the Biacore™ sensorchip, CM5, using conventional amine coupling. The tested antibody and control (serially diluted ½ 10-0.63 nM) were analyzed for binding in HBS-P (GE, #BR-1003-68) at a flow rate of […]. The association was followed for 5 minutes and the dissociation for 15 minutes. Regeneration was performed twice using 10 mM Glycine pH 1.7 for 30 seconds. The kinetic parameters and the affinity constants were calculated using 1:1 Langmuir model.
(In general: Surface plasmon resonance follows binding to a sensor surface in real time, without labels.)

For test [5], the target named is T3, recombinant human CD137-Fc (R&D #838-4B). The experiment in a line: ELISA, coated CD137-Fc; mean. (In general: In an ELISA, binding on a coated surface is turned into a signal by an enzyme label.)
For test [6], the target named is T4, CD137 chimera 1555 (1412): human CD137 with mouse domains 1 and 4B and region of unknown function (aa 24-46 … (human; mouse, UniProt P20334 24-45; P20334 139-185).
T4 construct: domain: 1;domain: 4B and region of unknown function
T4 sequence (P20334 other isoform, or with tags, fused parts or gaps mutant limits assumed): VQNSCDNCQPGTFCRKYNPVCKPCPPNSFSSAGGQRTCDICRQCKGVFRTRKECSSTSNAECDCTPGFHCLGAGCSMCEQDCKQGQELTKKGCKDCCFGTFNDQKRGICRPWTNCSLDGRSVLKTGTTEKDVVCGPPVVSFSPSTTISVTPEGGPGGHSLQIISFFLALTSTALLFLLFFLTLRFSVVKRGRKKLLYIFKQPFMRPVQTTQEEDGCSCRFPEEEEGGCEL
The test is described as follows: flow cytometry, 293-F transfectants.

Test [7] concerns the target construct 1030: full length human CD137, on FreeStyle 293-F cells (human, UniProt Q07011 24-255). The experiment in a line: flow cytometry, 293-F transfectants.
Test [8] has as its target T5, CD137 chimera 1550 (1407): human CD137 with mouse domains 1, 2A and 2B (aa 24-86), on FreeStyle 293-F cells (human; mouse, UniProt P20334 24-85).
T5 construct: domain: 1, 2A and 2B
The test is described as follows: flow cytometry, 293-F transfectants.

Test [9] addresses T6, CD137 chimera 1552 (1409): human CD137 with mouse domains 2B, 3A and 3B (aa 64-118), on FreeStyle 293-F cells (human; mouse, UniProt P20334 63-117).
T6 construct: domain: 2B, 3A and 3B
The test is described as follows: flow cytometry, 293-F transfectants.

Test [10] deals with T7, CD137 chimera 1553 (1410): human CD137 with mouse domains 3A, 3B and 4A (aa 87-133), on FreeStyle 293-F cells (human; mouse, UniProt P20334 86-133).
T7 construct: domain: 3A, 3B and 4A
T7 sequence (P20334 other isoform, or with tags, fused parts or gaps mutant limits assumed): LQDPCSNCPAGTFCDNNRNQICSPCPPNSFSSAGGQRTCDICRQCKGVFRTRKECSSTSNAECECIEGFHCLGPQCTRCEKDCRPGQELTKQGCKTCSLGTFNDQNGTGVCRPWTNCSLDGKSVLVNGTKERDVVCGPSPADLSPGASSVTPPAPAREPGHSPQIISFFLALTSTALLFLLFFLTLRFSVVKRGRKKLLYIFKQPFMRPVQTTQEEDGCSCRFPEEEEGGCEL
The test is described as follows: flow cytometry, 293-F transfectants.

In test [11] the target is T8, CD137 chimera 1554 (1411): human CD137 with mouse domains 3B, 4A and 4B (aa 97-159), on FreeStyle 293-F cells (human; mouse, UniProt P20334 96-159).
T8 construct: domain: 3B, 4A and 4B
T8 sequence (P20334 other isoform, or with tags, fused parts or gaps mutant limits assumed): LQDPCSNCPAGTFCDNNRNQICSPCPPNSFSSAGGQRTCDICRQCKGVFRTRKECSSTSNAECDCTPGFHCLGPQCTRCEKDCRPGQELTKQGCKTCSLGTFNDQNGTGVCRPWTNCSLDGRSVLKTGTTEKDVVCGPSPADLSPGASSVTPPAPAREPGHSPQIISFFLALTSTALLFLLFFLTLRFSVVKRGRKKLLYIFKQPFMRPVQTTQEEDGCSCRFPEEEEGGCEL
The experiment in a line: flow cytometry, 293-F transfectants.

In test [12] the target is T9, CD137 chimera 1551 (1408): human CD137 with mouse domains 2A, 2B and 3A (aa 47-96), on FreeStyle 293-F cells (human; mouse, UniProt P20334 46-95).
T9 construct: domain: 2A, 2B and 3A
T9 sequence (P20334 other isoform, or with tags, fused parts or gaps mutant limits assumed): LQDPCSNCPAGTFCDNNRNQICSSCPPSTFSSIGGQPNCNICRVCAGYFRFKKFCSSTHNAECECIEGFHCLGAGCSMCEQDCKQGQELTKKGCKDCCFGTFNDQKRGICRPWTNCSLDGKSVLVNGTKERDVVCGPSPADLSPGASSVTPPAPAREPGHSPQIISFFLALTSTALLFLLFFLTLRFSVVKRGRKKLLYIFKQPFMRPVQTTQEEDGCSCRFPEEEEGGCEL
The test is described as follows: flow cytometry, 293-F transfectants.

The target of another test is T10, CD40 (Ancell) (UniProt P25942 21-193).
T10 construct: also called CD40-Fc (Ancell #504-820); not shown: Fc part, not described
T10 sequence (P25942 21-193 limits assumed): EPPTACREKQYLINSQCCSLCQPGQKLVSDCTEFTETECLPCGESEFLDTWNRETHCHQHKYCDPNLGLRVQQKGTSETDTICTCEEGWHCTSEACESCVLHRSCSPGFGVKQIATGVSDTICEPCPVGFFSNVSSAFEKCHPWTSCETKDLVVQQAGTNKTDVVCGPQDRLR
The experiment in a line: ELISA, coated CD40-Fc. On the procedure:
(§3) ELISA plates (Greiner #655074) were coated with 50 μl/well of recombinant human OX40 (R&D #1493-CD), CD40-Fc (Ancell #504-820) or CD137 (R&D #838-4B) diluted to a final concentration of 0.5 μg/ml in PBS for 1 h at 37° C. or overnight at 4° C. Plates were washed with PBS+0.05% TWEEN20 (PBST), followed by block with PBST+1% bovine serum albumin (BSA). Antibody samples were prepared as serial 1/10 dilutions from 10-0.01 μg/ml in PBST+1% BSA and incubated for 1h in room temperature, followed by detection using a horse radish peroxidase-conjugated anti-human kappa light chain antibody (AbD Serotec #STAR127P) and developed using SuperSignal ELISA Pico Chemiluminescent substrate (Pierce ThermoScientific #37069).

The target of test [13] is T3, recombinant human CD137-Fc (R&D #838-4B). The test is described as follows: SPR (summary table); column headed ka (1/s).
Test [14] shares this target. The experiment in a line: SPR (summary table).
For test [15], the target named is CD137 on primary human CD8+ T cells (human, UniProt Q07011 24-255). The experiment in a line: cell-based or functional assay.
Chain of CD137 on primary human CD8+ T cells (Q07011 24-255 limits assumed): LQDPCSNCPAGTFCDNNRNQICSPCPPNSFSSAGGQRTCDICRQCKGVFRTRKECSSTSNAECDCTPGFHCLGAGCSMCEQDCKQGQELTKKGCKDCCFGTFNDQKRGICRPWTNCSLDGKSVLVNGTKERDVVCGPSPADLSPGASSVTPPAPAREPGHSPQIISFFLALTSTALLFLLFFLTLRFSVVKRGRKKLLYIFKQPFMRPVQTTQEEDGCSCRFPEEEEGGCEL
Test [16] concerns the target T11, Human OX40 (R&D systems, #3358_OX) (human, UniProt P43489 29-216).
T11 construct: Bought; Several catalogue numbers are given for it; also called human OX40 (R&D Systems, 3388-OX); OX40-Fc (R&D systems, #3358_OX); not shown: Fc part
T11 sequence: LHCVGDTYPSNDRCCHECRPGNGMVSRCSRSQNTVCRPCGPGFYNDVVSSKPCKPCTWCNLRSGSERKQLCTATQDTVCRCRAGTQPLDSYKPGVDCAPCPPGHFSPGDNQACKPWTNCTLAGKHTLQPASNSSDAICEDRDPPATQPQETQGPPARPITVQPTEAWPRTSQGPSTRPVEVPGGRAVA
The experiment in a line: ELISA, coated recombinant human OX40. The protocol:
as §3

Test [17] addresses T2, extracellular part of cynomolgus CD137 …. The experiment in a line: flow cytometry, CHO cells; against human CD137. On the procedure: as §1, §2

T3 sequence (Q07011 24-186 limits assumed): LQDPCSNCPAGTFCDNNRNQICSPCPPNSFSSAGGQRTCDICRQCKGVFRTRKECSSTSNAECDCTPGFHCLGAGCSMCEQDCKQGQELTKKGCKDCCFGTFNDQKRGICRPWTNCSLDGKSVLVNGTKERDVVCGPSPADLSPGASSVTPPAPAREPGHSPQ
T2 sequence (P25942 other isoform, or with tags, fused parts or gaps): as the sequence (P25942 other isoform, or with tags, fused parts or gaps limits assumed) above, with P4L, N19S, R50K, T66I, P67S, F69Y, G75E, V149A counted along it
T5 sequence (P20334 other isoform, or with tags, fused parts or gaps mutant limits assumed): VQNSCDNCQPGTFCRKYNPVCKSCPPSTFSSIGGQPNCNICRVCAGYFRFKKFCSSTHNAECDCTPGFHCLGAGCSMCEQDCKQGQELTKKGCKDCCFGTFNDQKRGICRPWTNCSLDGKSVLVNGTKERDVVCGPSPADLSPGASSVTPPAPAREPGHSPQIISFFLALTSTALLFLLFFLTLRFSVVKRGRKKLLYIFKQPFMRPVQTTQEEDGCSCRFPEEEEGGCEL
Chain of construct 1030: full length human CD137, on FreeStyle 293-F cells (Q07011 24-255 limits assumed): as the sequence (Q07011 24-255 limits assumed) above
T6 sequence (P20334 other isoform, or with tags, fused parts or gaps mutant limits assumed): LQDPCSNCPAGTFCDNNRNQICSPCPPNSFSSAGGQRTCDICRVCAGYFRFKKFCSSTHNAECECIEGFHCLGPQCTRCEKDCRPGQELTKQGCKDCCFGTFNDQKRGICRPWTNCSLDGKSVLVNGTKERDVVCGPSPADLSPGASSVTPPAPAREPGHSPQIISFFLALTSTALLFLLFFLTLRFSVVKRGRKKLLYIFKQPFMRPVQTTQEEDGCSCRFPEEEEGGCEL

B1: anti-CD137 antibody 1618/1619 (antibody, IgG1, V domains shown)
VH: EVQLLESGGGLVQPGGSLRLSCAASGFTFSYGSMYWVRQAPGKGLEWVSSISSGSGSTYYADSVKGRFTISRDNSKNTLYLQMNSLRAEDTAVYYCARSSYYGSYYSIDYWGQGTLVTVSS
VL: DIQMTQSPSSLSASVGDRVTITCRASQSISSYLNWYQQKPGKAPKLLIYAASSLQSGVPSRFSGSGSGTDFTLTISSLQPEDFATYYCQQYYDNLPTFGQGTKLEIK
notes: Produced as IgG; also called 1618-bio
Regarding B1, the EC50 in test [1] was 0.11 to 0.19 µg/mL; in test [2] it was 0.086 to 0.15 µg/mL; in [3] it was 0.11 to 0.19 µg/mL; in [5], 0.35 nM. Besides, the Kd was 0.107 nM in [4] and 0.1 nM in test [14]. Also, the off-rate (koff) in test [4] is 0.00011 s⁻¹; in test [13], 0.0001 s⁻¹. For the same molecule, the on-rate constant (kon) in test [4] was 1.02e+06 M⁻¹ s⁻¹; in test [14] it was 1e+06 M⁻¹ s⁻¹. The “relative binding (MFI sample/isotype control, normalised to full-length human CD137)” value in test [6] turned out to be 0.12; in test [7], 1; in [8] it was 0.11; in test [9], 1.2; in test [10], 1.24; in test [11] it was 1.01. For the same molecule, the “relative binding (MFI sample/isotype control, normalised to full-length human CD137)” value in [12] stood at 0.67. The binding result (with CD40 (Ancell); in [16]) was “no binding (tested: 10 µg/ml)” in each case. Besides, the “Max IFN-γ” value in test [15] was 111000 pg/mL. In addition, in [15], the “Mean IFN-γ” value worked out at 33600 pg/mL. In addition, the “Min IFN-γ” value in test [15] is 7380 pg/mL. The “Ratio, cyno:human (EC50)” value in test [17] was determined as 0.77.
